# From patent US7067619 (LA JOLLA CANCER RESEARCH FOUNDATION, dated 2006)
# Ends that are not written are not given here.
# Molecular target: αvβ5 integrin isolated from human placental extract (human, UniProt P06756 31-1048; P18084 24-799)
# Experiment: phage panning on coated integrin
# Procedure: In the first panning, the integrins were coated at 5 µg per well, and the library pool was incubated for 4 hours at 25° C. in TBS buffer containing 1% bovine serum albumin and 1 mM MnCl_2 (α_5β_1, α_vβ_3) 1 mM MgCl_2 ($\alphaIIb\beta_3$) or 1 mM CaCl_2 (α_vβ_5).
# Sequence of αvβ5 integrin isolated from human placental extract (P06756 31-1048, chain 1 of 2): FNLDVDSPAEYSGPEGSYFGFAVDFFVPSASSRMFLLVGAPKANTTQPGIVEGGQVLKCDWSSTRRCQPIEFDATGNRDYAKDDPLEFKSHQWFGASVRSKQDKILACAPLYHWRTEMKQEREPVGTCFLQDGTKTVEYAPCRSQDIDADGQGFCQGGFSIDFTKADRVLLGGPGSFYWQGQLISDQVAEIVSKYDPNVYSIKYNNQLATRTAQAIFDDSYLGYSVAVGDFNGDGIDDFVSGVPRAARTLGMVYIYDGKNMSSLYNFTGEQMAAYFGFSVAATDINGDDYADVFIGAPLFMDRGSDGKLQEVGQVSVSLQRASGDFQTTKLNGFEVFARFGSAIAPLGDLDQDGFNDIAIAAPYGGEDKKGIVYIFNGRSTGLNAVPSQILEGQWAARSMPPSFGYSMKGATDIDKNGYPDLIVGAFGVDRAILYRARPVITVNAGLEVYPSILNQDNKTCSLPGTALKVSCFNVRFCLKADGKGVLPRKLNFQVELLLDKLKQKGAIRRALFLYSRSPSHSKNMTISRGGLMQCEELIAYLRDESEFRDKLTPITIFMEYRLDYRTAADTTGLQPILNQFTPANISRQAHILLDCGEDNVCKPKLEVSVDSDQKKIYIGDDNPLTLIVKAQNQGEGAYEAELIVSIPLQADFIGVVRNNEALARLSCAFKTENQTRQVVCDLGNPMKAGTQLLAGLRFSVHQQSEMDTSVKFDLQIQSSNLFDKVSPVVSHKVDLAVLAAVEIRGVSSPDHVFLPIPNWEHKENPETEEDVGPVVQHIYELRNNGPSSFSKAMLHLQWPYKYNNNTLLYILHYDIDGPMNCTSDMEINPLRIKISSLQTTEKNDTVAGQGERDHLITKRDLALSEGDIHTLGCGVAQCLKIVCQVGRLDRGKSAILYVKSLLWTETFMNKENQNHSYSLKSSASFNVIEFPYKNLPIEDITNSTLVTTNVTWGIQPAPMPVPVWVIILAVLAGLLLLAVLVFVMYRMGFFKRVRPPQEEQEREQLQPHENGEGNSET
# Sequence of αvβ5 integrin isolated from human placental extract (P18084 24-799, chain 2 of 2): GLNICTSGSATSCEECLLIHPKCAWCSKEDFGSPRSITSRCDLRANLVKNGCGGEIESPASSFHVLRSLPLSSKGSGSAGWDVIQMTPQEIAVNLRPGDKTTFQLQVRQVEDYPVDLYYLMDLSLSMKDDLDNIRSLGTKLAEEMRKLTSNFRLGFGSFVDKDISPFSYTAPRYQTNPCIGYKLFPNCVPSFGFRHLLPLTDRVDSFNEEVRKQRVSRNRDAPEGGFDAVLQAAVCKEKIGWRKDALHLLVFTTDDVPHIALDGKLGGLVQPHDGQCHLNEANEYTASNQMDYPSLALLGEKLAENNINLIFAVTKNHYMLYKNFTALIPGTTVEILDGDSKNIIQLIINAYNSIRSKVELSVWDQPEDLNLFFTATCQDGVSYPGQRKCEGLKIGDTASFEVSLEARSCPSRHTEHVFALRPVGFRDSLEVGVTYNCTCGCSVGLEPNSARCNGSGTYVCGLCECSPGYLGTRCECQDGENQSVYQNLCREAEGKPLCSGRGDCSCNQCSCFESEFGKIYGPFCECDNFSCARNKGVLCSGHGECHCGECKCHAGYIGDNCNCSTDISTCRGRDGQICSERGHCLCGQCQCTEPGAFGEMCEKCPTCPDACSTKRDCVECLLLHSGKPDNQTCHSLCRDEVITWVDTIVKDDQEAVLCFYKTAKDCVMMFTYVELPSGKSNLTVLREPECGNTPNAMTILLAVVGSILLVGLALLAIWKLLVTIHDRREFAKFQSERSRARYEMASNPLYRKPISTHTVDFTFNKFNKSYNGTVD
row,Binder,binding result
1,"CLVRGDSLC (on fuse 5 phage, fused to pIII) [CLVRGDSLC phage]",binds
2,"CVVRGDTFC (on fuse 5 phage, fused to pIII) [CVVRGDTFC phage]",binds
3,"CQGRGDTFYC (on fuse 5 phage, fused to pIII) [CQGRGDTFYC phage]",binds
4,"CVTRGDSFSC (on fuse 5 phage, fused to pIII) [CVTRGDSFSC phage]",binds
5,"CAHRGDTPQC (on fuse 5 phage, fused to pIII) [CAHRGDTPQC phage]",binds
6,"CDLRGDTYC (on fuse 5 phage, fused to pIII) [CDLRGDTYC phage]",binds
7,"CISRGDTFC (on fuse 5 phage, fused to pIII) [CISRGDTFC phage (αvβ5 selection)]",binds
8,"CDCRGDCLC (not fully specified (bridges); also: two disulfide bonds, pairing not given here, on fuse 5 phage, fused to pIII) [CDCRGDCLC phage]",binds
9,"CRGDCCQSC (on fuse 5 phage, fused to pIII) [CRGDCCQSC phage]",binds
10,"CLCRGDCIC (not fully specified (bridges); also: two disulfide bonds, pairing not given here, on fuse 5 phage, fused to pIII) [CLCRGDCIC phage]",binds
11,"CAPRGDHFAC (on fuse 5 phage, fused to pIII) [CAPRGDHFAC phage]",binds
12,"CQSRGDDFSC (on fuse 5 phage, fused to pIII) [CQSRGDDFSC phage]",binds
13,"CRGDTYLIC (on fuse 5 phage, fused to pIII) [CRGDTYLIC phage]",binds
14,"CQVRGDQFAC (on fuse 5 phage, fused to pIII) [CQVRGDQFAC phage]",binds
15,"CVRRGDVFC (on fuse 5 phage, fused to pIII) [CVRRGDVFC phage]",binds
16,"CPRRGDTFSC (on fuse 5 phage, fused to pIII) [CPRRGDTFSC phage]",binds
17,"CLHPNVRSC (on fuse 5 phage, fused to pIII) [CLHPNVRSC phage]",binds
18,"CHTRGDTFC (on fuse 5 phage, fused to pIII) [CHTRGDTFC phage]",binds
19,"CDSVLRVFC (on fuse 5 phage, fused to pIII) [CDSVLRVFC phage]",binds
20,"CIRRGDTFGC (on fuse 5 phage, fused to pIII) [CIRRGDTFGC phage]",binds
21,"CTQRGDNFFC (on fuse 5 phage, fused to pIII) [CTQRGDNFFC phage]",binds
22,"CEMRGDTFC (on fuse 5 phage, fused to pIII) [CEMRGDTFC phage]",binds
23,"CVSRGDTPKC (on fuse 5 phage, fused to pIII) [CVSRGDTPKC phage]",binds
24,"CELRGDSAC (on fuse 5 phage, fused to pIII) [CELRGDSAC phage]",binds
25,"CGRGDTPTC (on fuse 5 phage, fused to pIII) [CGRGDTPTC phage]",binds
26,"CGRRGDVPRC (on fuse 5 phage, fused to pIII) [CGRRGDVPRC phage]",binds
27,"CVTRGDNFC (on fuse 5 phage, fused to pIII) [CVTRGDNFC phage]",binds
28,"CVLRGDNFC (on fuse 5 phage, fused to pIII) [CVLRGDNFC phage]",binds
